# Experimental data reported in article PMC7900517, “PIP2 promotes conformation-specific dimerization of the EphA2 membrane region” (The Journal of Biological Chemistry, 2020).
# Ends that are not written are not given here. Alexa Fluor 488 = fluorescent dye attached through a C5 maleimide linker to the added cysteine
# B1: TMJM peptide labeled with Alexa Fluor 488 (peptide)
# peptide: GSGNLAVIGGVAVGVVLLLVLAGVGFFIHRRRKC(Alexa Fluor 488)WN
# modifications: also: Alexa Fluor 488 (C5 maleimide) on the added C-terminal cysteine
# notes: EphA2 residues 531 to 563: a short stretch of extracellular residues, the TMD and the first five JM residues (HRRRK); added residues at the C terminus: a cysteine for dye conjugation and a tryptophan as fluorescent reporter; Reconstituted in 14:1 PC or 22:1 PC bilayers with 3% biotin-PE and solubilised as SMALPs; also called Alexa Fluor 488 labeled TMJM peptide; source: synthetic peptide (F-moc …)
# B2: TMJM peptide (unlabeled) (peptide)
# peptide: GSGNLAVIGGVAVGVVLLLVLAGVGFFIHRRRKCWN
# notes: EphA2 residues 531 to 563: a short stretch of extracellular residues, the TMD and the first five JM residues (HRRRK); added residues at the C terminus; the free cysteine forms the disulfide in the cross-linking experiment; Free Cys at the JM end; also called unlabeled TMJM; source: synthetic peptide (F-moc chemistry, Thermo Fisher)
# How the values were obtained:
# [1] = biological target: the molecule itself; assay: single-molecule photobleaching (TIRF) in SMALPs; Alexa Fluor 488-TMJM in 22:1 PC or 14:1 PC SMALPs with 3% biotin-PE, ± 3% PIP2 or 10% POPS, ± 1 mM Ca2+; lipid-to-peptide ratio 300:1; SMALPs (20 to 30 nM peptide) immobilised on PEGylated slides via biotin-streptavidin; SMALP buffer 19.3 mM HEPES, 150 mM NaCl, 1 mM EGTA; photobleaching steps counted for each SMALP
# [2] = biological target: the molecule itself; assay: cross-linking; disulfide cross-linking through the C-terminal Cys; unlabeled TMJM in 14:1 PC or 22:1 PC liposomes ± 3% PIP2, lipid-to-peptide ratio 300:1; 19.3 mM HEPES, 1 mM EGTA, shaken 3 h at room temperature (19-21 °C); non-reducing SDS-PAGE (16% tricine gel), silver stain
Protein,stoichiometry N [1],binding result [2]
B1,2,
B2,,binds
